US20180030151A1 (MOGAM INSTITUTE FOR BIOMEDICAL RESEARCH, published 2018)
Read-outs that look alike come from different tables or passages of the source.

How the values were obtained:
[1] = target: T1, recombinant human TFPI (tissue factor pathway inhibitor) (human, UniProt P10646 29-304); test: cell-based or functional assay
[2] = target: T1, recombinant human TFPI (tissue factor …); test: cell-based or functional assay; remark: listed apart in the source
[3] = target: T1, recombinant human TFPI (tissue factor …); test: cell-based or functional assay; remark: listed apart in the source
[4] = target: T1, recombinant human TFPI (tissue factor …); test: cell-based or functional assay; remark: listed apart in the source
[5] = target: T1, recombinant human TFPI (tissue factor …); test: cell-based or functional assay; remark: listed apart in the source
[6] = target: T1, recombinant human TFPI (tissue factor …); test: cell-based or functional assay; remark: listed apart in the source
[7] = target: T1, recombinant human TFPI (tissue factor …); test: cell-based or functional assay; remark: listed apart in the source
[8] = target: T1, recombinant human TFPI (tissue factor …); test: cell-based or functional assay; remark: listed apart in the source
[9] = target: T1, recombinant human TFPI (tissue factor …); test: cell-based or functional assay; remark: listed apart in the source
[10] = target: T1, recombinant human TFPI (tissue factor …); test: SPR, Biacore T-200; IgG captured on protein A (CM5), TFPI as analyte
Method: Dissociation of the TFPI associated with the antibody was induced by running 10 mM glycine-HCl (pH 1.5) at a flow rate for 30 seconds. The affinities in terms of kinetic rate constants (Kₒₙ and Koff) and equilibrium dissociation constant (KD) were evaluated using Biacore T-200 evaluation software, and the results are shown in Table 24 below.

B1: clone 1023 (antibody, V domains shown)
VH: EVQLVESGGGLVKPGGSLRLSCAASGFTFSSYAMNWVRQAPGKGLEWVGTITTGGSYTYYADSVDGRFTISRDNAKNSLYLQMNSLRAEDTAVYYCARQDGNFLMDYWGQGTLVTVSS
VL: DVVMTQTPLSLPVTLGQPASISCKSSQSLLDIDGKTYLNWLQQRPGQSPKRLIYLVSKLDSGVPDRFTGSGSGTDFTLKISRVEAEDVGVYYCWQGTHFPFTFGQGTKVEIKR
notes: scFv on yeast at selection; human IgG4/kappa IgG as purified
**Q.** Which results are given for B1?
**A.** % of Normalized, TF/FVIIa/FX complex assay, Ab 3.13 nM [1]: 6%; % of Normalized, TF/FVIIa/FX complex assay, Ab 6.25 nM [1]: 8.3%; % of Normalized, TF/FVIIa/FX complex assay, Ab 12.5 nM [1]: 10.3%; % of Normalized, TF/FVIIa/FX complex assay, Ab 25 nM [1]: 43.7%; % of Normalized, TF/FVIIa/FX complex assay, Ab 50 nM [1]: 80.3%; % of Normalized, TF/FVIIa/FX complex assay, Ab 100 nM [1]: 99.8%; FXa assay % of FXa alone, 2.5 nM Ab, 10 nM TFPI [2]: 8.4%; FXa assay % of FXa alone, 5 nM Ab, 10 nM TFPI [2]: 40.8%; FXa assay OD, 2.5 nM Ab, 10 nM TFPI [2]: 0.0605; FXa assay OD, 5 nM Ab, 10 nM TFPI [2]: 0.293; FXa assay OD, 10 nM Ab, 10 nM TFPI [2]: 0.605; FXa assay % of FXa alone, 2.5 nM Ab, 10 nM TFPI [3]: 8.7%; FXa assay % of FXa alone, 5 nM Ab, 10 nM TFPI [3]: 47.3%; FXa assay % of FXa alone, 10 nM Ab, 10 nM TFPI [3]: 89.6%; FXa assay % of FXa alone, 20 nM Ab, 10 nM TFPI [3]: 101%; FXa assay OD, 2.5 nM Ab, 10 nM TFPI [3]: 0.042; FXa assay OD, 5 nM Ab, 10 nM TFPI [3]: 0.229; FXa assay OD, 10 nM Ab, 10 nM TFPI [3]: 0.433; FXa assay OD, 20 nM Ab, 10 nM TFPI [3]: 0.488; FXa assay % of FXa alone, 2.5 nM Ab, 10 nM TFPI [4]: 8.9%; FXa assay % of FXa alone, 5 nM Ab, 10 nM TFPI [4]: 63.1%; FXa assay % of FXa alone, 10 nM Ab, 10 nM TFPI [4]: 85.3%; FXa assay % of FXa alone, 20 nM Ab, 10 nM TFPI [4]: 88.5%; FXa assay OD, 2.5 nM Ab, 10 nM TFPI [4]: 0.0715; FXa assay OD, 5 nM Ab, 10 nM TFPI [4]: 0.509; FXa assay OD, 10 nM Ab, 10 nM TFPI [4]: 0.688; FXa assay OD, 20 nM Ab, 10 nM TFPI [4]: 0.714; FXa assay % of FXa alone, 2.5 nM Ab, 10 nM TFPI [5]: 7.9%; FXa assay % of FXa alone, 5 nM Ab, 10 nM TFPI [5]: 37.7%; FXa assay % of FXa alone, 10 nM Ab, 10 nM TFPI [5]: 84.3%; FXa assay % of FXa alone, 20 nM Ab, 10 nM TFPI [5]: 91.7%; FXa assay OD, 2.5 nM Ab, 10 nM TFPI [5]: 0.064; FXa assay OD, 5 nM Ab, 10 nM TFPI [5]: 0.306; FXa assay OD, 10 nM Ab, 10 nM TFPI [5]: 0.684; FXa assay OD, 20 nM Ab, 10 nM TFPI [5]: 0.745; FXa assay % of FXa alone, 2.5 nM Ab, 10 nM TFPI [6]: 6.7%; FXa assay % of FXa alone, 5 nM Ab, 10 nM TFPI [6]: 26.6%; FXa assay % of FXa alone, 10 nM Ab, 10 nM TFPI [6]: 82.3%; FXa assay % of FXa alone, 20 nM Ab, 10 nM TFPI [6]: 84%; FXa assay OD, 2.5 nM Ab, 10 nM TFPI [6]: 0.051; FXa assay OD, 5 nM Ab, 10 nM TFPI [6]: 0.203; FXa assay OD, 10 nM Ab, 10 nM TFPI [6]: 0.626; FXa assay OD, 20 nM Ab, 10 nM TFPI [6]: 0.639; FXa assay % of FXa alone, 2.5 nM Ab, 10 nM TFPI [7]: 5.2%; FXa assay % of FXa alone, 5 nM Ab, 10 nM TFPI [7]: 8%; FXa assay % of FXa alone, 10 nM Ab, 10 nM TFPI [7]: 52.7%; FXa assay % of FXa alone, 20 nM Ab, 10 nM TFPI [7]: 78.4%; FXa assay OD, 2.5 nM Ab, 10 nM TFPI [7]: 0.045; FXa assay OD, 5 nM Ab, 10 nM TFPI [7]: 0.0695; FXa assay OD, 10 nM Ab, 10 nM TFPI [7]: 0.459; FXa assay OD, 20 nM Ab, 10 nM TFPI [7]: 0.682; FXa assay % of FXa alone, 2.5 nM Ab, 10 nM TFPI [8]: 8.1%; FXa assay % of FXa alone, 5 nM Ab, 10 nM TFPI [8]: 16.2%; FXa assay % of FXa alone, 10 nM Ab, 10 nM TFPI [8]: 80.9%; FXa assay % of FXa alone, 20 nM Ab, 10 nM TFPI [8]: 92.8%; FXa assay OD, 2.5 nM Ab, 10 nM TFPI [8]: 0.096; FXa assay OD, 5 nM Ab, 10 nM TFPI [8]: 0.193; FXa assay OD, 10 nM Ab, 10 nM TFPI [8]: 0.963; FXa assay OD, 20 nM Ab, 10 nM TFPI [8]: 1.1; FXa assay % of FXa alone, 2.5 nM Ab, 10 nM TFPI [9]: 7.3%; FXa assay % of FXa alone, 5 nM Ab, 10 nM TFPI [9]: 25.2%; FXa assay % of FXa alone, 10 nM Ab, 10 nM TFPI [9]: 83.6%; FXa assay % of FXa alone, 20 nM Ab, 10 nM TFPI [9]: 85.5%; FXa assay OD, 2.5 nM Ab, 10 nM TFPI [9]: 0.06; FXa assay OD, 5 nM Ab, 10 nM TFPI [9]: 0.208; FXa assay OD, 10 nM Ab, 10 nM TFPI [9]: 0.691; FXa assay OD, 20 nM Ab, 10 nM TFPI [9]: 0.707; Kd [10]: 0.0301 nM
